Reference: US6969760

Assays:
[1] = target: IFN-γ receptor on 2C4 and mutant γ-1 cells (human HT1080-derived) (human) (UniProt P15260); assay: binding of 125I-labeled IFN-γ to 10^6 2C4 or γ-1 cells, 90 min at 0° C., non-specific binding subtracted
[2] = target: IFN-γ receptor on 2C4 and mutant γ-1 cells (human HT1080-derived) (human) (UniProt P15260); assay: binding of 125I-labeled IFN-γ diluted to a lower specific activity, cells at 0° C.

Q: Which receptors per cell (specific binding at the highest IFN-γ concentration) (receptors per cell) [1] does the source give for “125I-labeled human IFN-γ (from UniProt P01579 24-166) (ligand)” here?
A: The receptors per cell (specific binding at the highest IFN-γ concentration) (receptors per cell) was 6000.

Q: What about the receptors per cell (saturation binding) (receptors per cell) [2] of the same substance?
A: Its receptors per cell (saturation binding) (receptors per cell) is 10000.
